The values below come from paper PMC9349299.

Assay [1] addresses AvmM (Streptomyces sp. TP-A0867). In words: crystal structure; sitting drop, 22 °C; protein 10 mg/mL in 50 mM NaCl, 20 mM Tris pH 8.0; reservoir 0.2 M magnesium acetate, 0.1 M sodium cacodylate pH 6.5, 20% PEG 8000; apo AvmM at 2.09 Å and AvmM with product 2 at 2.5 Å.
The target is the same in assay [2]. In words: SEC; HiLoad 16/600 Superdex 200 pg, 50 mM NaCl, 20 mM Tris pH 8.0, 4 °C, 1 mL/min; calibrated with cytochrome c, ovalbumin, aldolase, ferritin.

Regarding AvmM (enzyme), the stoichiometry N in assay [1] and in assay [2] was 3 each time.
